Data reported in publication PMC7487859.
pKd: −log10 of the molar value.

Assays:
[1] = system: PDGFRbeta (human, on MDA-MB-231 cells) (Homo sapiens); experiment: cell binding assay; conditions: intact MDA-MB-231 cells; 2'-fluoro pyrimidines; 10-500 nM aptamer, 10 min, room temperature, BlockAid blocking solution with 1 mg/ml yeast tRNA and 1 mg/ml salmon sperm DNA; salt; cited from earlier work
[2] = system: PDGFRbeta (mouse, on 4T1 cells) (Mus musculus); experiment: streptavidin-biotin cell binding assay; conditions: apparent Kd on intact 4T1 cells; Scr background subtracted; 2'-fluoro pyrimidines; 4T1 cells (2x10^4/well), 10-500 nM aptamer, 10 min, room temperature, BlockAid blocking solution with 1 mg/ml yeast tRNA and 1 mg/ml salmon sperm DNA; salt and …

Substance	pKd [1]	pKd [2]
Gint4.T (as in cited ref 31)	7.24	–
Gint4.T	–	7.11
